{"source": "paper PMC10983868", "about": "(bioRxiv, 2025)", "key": {"[1]": {"biological_target": "soluble biotinylated TcdB fragment (1401-1616) (Clostridioides difficile VP10463, UniProt P18177, biotin)", "sequence (P18177 1401-1616)": "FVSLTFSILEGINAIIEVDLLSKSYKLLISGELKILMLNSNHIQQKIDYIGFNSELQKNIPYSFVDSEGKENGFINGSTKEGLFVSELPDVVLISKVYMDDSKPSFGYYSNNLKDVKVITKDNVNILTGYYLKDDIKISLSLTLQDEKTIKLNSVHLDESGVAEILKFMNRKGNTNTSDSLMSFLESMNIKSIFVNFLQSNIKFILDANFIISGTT", "experiment": "flow cytometry on cells"}, "[2]": {"biological_target": "Clostridium difficile toxin B (TcdB) (Clostridium difficile, UniProt P18177)", "sequence (P18177 whole entry)": "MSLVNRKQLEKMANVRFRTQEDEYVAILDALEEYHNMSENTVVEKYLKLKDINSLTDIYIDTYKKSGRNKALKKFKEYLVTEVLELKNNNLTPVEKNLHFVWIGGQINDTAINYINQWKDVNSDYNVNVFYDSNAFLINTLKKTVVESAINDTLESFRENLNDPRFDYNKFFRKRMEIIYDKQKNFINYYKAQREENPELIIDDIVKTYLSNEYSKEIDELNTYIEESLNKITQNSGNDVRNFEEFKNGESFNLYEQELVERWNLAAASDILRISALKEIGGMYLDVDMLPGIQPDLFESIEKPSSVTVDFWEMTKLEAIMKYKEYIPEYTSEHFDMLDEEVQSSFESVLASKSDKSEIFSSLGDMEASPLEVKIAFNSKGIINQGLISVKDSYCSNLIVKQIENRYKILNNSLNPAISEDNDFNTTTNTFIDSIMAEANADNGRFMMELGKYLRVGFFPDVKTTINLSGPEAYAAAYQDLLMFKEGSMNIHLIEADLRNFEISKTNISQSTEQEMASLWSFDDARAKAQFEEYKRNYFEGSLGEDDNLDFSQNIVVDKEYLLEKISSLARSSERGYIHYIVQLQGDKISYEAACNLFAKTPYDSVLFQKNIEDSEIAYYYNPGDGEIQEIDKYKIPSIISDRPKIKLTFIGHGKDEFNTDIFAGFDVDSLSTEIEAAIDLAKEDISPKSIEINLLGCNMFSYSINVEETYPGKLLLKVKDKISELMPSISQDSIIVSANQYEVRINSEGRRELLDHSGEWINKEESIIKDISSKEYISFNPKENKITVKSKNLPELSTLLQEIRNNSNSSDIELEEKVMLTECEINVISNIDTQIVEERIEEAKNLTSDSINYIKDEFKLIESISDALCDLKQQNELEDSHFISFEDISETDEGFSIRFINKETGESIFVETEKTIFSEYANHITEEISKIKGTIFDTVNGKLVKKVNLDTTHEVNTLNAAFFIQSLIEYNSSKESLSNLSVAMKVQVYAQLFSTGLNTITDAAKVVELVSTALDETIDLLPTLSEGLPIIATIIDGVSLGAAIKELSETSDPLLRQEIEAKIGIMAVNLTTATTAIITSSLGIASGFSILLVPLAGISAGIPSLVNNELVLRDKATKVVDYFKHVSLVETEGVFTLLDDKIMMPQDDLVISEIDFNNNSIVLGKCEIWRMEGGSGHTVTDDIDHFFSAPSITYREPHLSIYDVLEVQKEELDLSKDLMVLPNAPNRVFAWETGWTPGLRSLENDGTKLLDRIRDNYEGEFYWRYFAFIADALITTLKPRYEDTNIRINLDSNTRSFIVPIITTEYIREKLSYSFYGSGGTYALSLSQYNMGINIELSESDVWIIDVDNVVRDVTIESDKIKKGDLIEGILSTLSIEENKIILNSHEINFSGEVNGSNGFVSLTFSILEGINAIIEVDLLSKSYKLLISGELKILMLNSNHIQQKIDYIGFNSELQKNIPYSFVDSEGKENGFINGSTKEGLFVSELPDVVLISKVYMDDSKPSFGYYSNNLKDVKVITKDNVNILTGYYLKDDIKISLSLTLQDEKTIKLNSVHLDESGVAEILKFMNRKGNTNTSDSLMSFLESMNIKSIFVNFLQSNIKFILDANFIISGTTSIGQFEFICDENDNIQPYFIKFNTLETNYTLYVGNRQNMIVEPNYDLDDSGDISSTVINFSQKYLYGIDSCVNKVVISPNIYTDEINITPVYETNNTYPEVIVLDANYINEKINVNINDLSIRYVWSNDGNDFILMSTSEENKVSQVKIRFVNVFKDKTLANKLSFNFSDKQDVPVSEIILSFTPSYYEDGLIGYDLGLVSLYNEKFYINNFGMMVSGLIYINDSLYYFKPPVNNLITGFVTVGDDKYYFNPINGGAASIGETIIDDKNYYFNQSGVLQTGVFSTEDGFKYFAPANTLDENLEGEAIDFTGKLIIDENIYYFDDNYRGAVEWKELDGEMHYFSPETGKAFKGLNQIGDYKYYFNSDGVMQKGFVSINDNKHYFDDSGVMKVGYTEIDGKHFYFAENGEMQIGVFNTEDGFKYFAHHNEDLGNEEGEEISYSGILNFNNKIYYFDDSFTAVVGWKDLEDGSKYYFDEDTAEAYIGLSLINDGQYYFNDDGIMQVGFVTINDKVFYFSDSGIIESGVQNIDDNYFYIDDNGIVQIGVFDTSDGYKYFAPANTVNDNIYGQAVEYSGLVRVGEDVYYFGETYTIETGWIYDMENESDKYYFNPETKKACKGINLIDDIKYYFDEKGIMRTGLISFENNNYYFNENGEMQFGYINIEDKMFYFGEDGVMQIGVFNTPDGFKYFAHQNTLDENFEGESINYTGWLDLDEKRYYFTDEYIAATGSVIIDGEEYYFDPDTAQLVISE", "experiment": "flow cytometry on cells"}}, "data": [{"binder": "scFv4-C-Myc construct displayed on yeast (scFv, V domains shown) VH: EVQLVESGGGLVQPGGSLRLSCAASGFDLKEKYIHWVRQAPGKGLEWVARINVKTGSTRYADSVKGRFTISADTSKNTAYLQMNSLRAEDTAVYYCSRENRFGALTVWGQGTLVTVSS VL: DIQMTQSPSSLSASVGDRVTITCTTSSYVPMLVSWYQQKPGKAPKLLIYSSVIRAPGVPSRFSGSRSGTDFTLTISSLQPEDFATYYCSVLQKDGNLVFGQGTKVEIK", "values": [{"measurement": "binding result", "setting": "[1]", "result": "binds"}, {"measurement": "binding result", "setting": "[2]", "result": "binds"}]}]}
